We go through one protein from FireProtDB (doi:10.1021/bi00011a035).

The conditions of this series: Aspergillus oryzae (strain ATCC 42149 / RIB 40), 25 °C, GdnHCl, Absorbance, reversible: yes, whole UniProt chain shown.

B1: Guanyl-specific ribonuclease T1 wild type, P00651 (protein)
chain: MMYSKLLTLTTLLLPTALALPSLVERACDYTCGSNCYSSSDVSTAQAAGYQLHEDGETVGSNSYPHKYNNYEGFDFSVSSPYYEWPILSSGDVYSGGSPGADRVVFNENNQLAGVITHTGASGNNFVECT
On to B1, for which the denaturant m value worked out at 1.85 kcal/mol/M (pH 3, beta-alanine 0.1 M); 1.7 kcal/mol/M (pH 3.5, beta-alanine 0.1 M); 1.36 kcal/mol/M (pH 6, Bis-Tris 0.1 M); 1.28 kcal/mol/M (pH 7, HEPES 0.1 M); 1.21 kcal/mol/M (pH 8.5, taurine 0.1 M). For the same protein, the “denaturant midpoint (higher = more stable)” value (“denaturant midpoint” below) (pH 3, beta-alanine 0.1 M) is 2.42 M; the “denaturant midpoint” value (pH 3.5, beta-alanine 0.1 M) was 3.4 M; the “denaturant midpoint” value (pH 6, Bis-Tris 0.1 M) was found to be 6.49 M; the “denaturant midpoint” value (pH 7, HEPES 0.1 M) turned out to be 7.26 M; the “denaturant midpoint” value (pH 8.5, taurine 0.1 M) turned out to be 7.69 M. Moreover, the unfolding free energy was 4.48 kcal/mol (pH 3, beta-alanine 0.1 M); 5.78 kcal/mol (pH 3.5, beta-alanine 0.1 M); 8.82 kcal/mol (pH 6, Bis-Tris 0.1 M); 9.26 kcal/mol (pH 7, HEPES 0.1 M); 9.3 kcal/mol (pH 8.5, taurine 0.1 M).
